Series [1] has as its target T1, human cysteine sulfinic acid decarboxylase (CSAD) (Homo sapiens, UniProt Q9Y600).
T1 construct: His6 and TEV site), tag kept (cleavage not mentioned); plasmid pNIC28-Bsa4; E. coli Rosetta(DE3); homodimer in crystal (PDB 2jis, solved by SGC)
T1 sequence (Q9Y600 1-493): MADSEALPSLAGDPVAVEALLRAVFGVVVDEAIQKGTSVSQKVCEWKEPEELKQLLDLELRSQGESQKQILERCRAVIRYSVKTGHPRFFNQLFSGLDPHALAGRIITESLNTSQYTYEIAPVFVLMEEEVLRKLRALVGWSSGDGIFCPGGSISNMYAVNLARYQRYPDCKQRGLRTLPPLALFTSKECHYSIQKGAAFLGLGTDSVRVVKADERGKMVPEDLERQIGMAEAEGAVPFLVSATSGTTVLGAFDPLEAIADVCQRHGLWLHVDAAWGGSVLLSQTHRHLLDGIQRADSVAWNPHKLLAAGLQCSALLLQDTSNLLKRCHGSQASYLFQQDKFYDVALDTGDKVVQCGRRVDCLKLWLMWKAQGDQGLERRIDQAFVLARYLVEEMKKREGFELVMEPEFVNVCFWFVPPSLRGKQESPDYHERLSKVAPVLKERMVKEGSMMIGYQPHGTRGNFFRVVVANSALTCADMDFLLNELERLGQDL
Description: restoration of catalytic activity by equimolar PLP; absorption spectrum after dialysis. In kind it is biochemical. The settings on record: covalent (Schiff base to Lys305 in PDB 2jis, not solved here); spectrum in 20 mM NaHEPES pH 7.5, 300 mM NaCl, 0.2 mM DTT, 5% glycerol.

Substrate in the series “purified protein”: N[C@@H](CS(=O)O)C(=O)O
Description: purified protein. It counts as biochemical, Homo sapiens. The settings on record: 20 mM potassium phosphate pH 7.2, 0.2 mM DTT, 0.1 mM EDTA, 0.06 mM PLP, about 20 °C (room temperature), 0.33 μM CSAD, CSA 0.06–1 mM.

Take `Cc1ncc(COP(=O)(O)O)c(C=O)c1O` [PLP, pyridoxal-5′-phosphate]: the “restoration of catalytic activity by equimolar PLP; absorption spectrum after di” value in series [1] is reported as “addition of exogenous PLP—in equimolar concentration with respect to the protein—restored the holo-form”.

B1: human cysteine sulfinic acid decarboxylase (CSAD) (Homo sapiens) (protein)
chain: T1 sequence (Q9Y600 1-493)
notes: His6 and TEV site), tag kept (cleavage not mentioned); plasmid pNIC28-Bsa4; E. coli Rosetta(DE3); homodimer in crystal (PDB 2jis, solved by SGC)
In the case of B1, in “purified protein”, the Km stood at 0.20 ± 0.02 mM and the kcat amounted to 5.6 ± 0.2 s⁻¹.

The term Km denotes the substrate concentration at which the rate is half of its maximum. One may read the kcat as the maximal rate divided by the concentration of active sites.

Values taken from paper PMC8153620, “A Novel, Easy Assay Method for Human Cysteine Sulfinic Acid Decarboxylase” (Life, 2021).
